Measurements: US20160272995A1, “MANIPULATION OF PLASMODESMAL CONNECTIVITY TO IMPROVE PLANT YIELD AND FITNESS” (UNIVERSITY OF DELAWARE, priority 2013, published 2016)

Tests used:
[1] = system: plasmodesmata (PD); settings: Arabidopsis plants; cited from earlier work
[2] = Arabidopsis plants; cited from earlier work
[3] = system: Arabidopsis thaliana; test: Primary and lateral root quantification in seedlings; type: in vivo
Procedure: (A) Lateral root development in wild type (WT) plants, plants having a severe knock down of PDLP5 (pdlp5-1), and plants overexpressing PDLP5 (PDLPOE) expressing DR5:GUS. Arrowheads indicate tertiary roots. (B) Quantification of total lateral root numbers (both emerged and unemerged secondary [2°], tertiary [3°], and quaternary [4°] roots). n≧30 per seedling set. Bars, standard deviation. Stars, significance determined by student T-test (P<0.01). (C) A diagram depicting several stages of LRP emergence. (D) Percent distribution of LRP stages, recorded at root bend at indicated time points following gravistimulation at 3 dpg. n≧20 seedlings per set.
(A-C) GUS-stained 11-day-old seedlings expressing DR5:GUS in wild type (WT) Col-0 plants (A), plants having a severe knock down of PDLP5 (pdlp5-1) (B), and plants overexpressing PDLP5 (PDLPOE) (C). Size bar in (A), common to (B) and (C). (D) Measurement of primary root length in 10-day-old wild type (WT) seedlings, seedlings having a severe knock down of PDLP5 (pdlp5-1), and seedlings overexpressing PDLP5 (PDLPOE). n=30 seedling per line. (E) Measurement of % emerged lateral root (LR) of total secondary roots in 10-day-old WT, pdlp5-1, and PDLP5OE seedlings. n=30 seedling per line. (F) Measurement of average secondary root length per seedling in 7-day-old WT and pdlp5-1. n=28 seedlings per line.
To investigate the importance of PD function during lateral root emergence, PDLP5 loss-of-function and over-expressing lines were characterized. […] Furthermore, this reduction in secondary root development was reiterated in later stages of root branching, with PDLP5OE showing reduced tertiary root occurrence (26% and 50% of WT at 8 and 11 day post germination [dpg], respectively). […] Lateral roots were 1.4-fold longer on average in pdlp5-1 than WT (FIG. 17F) at 7 dpg and later. […] Given the overall increase in average secondary root length in pdlp5-1, we conclude that the higher occurrence of tertiary and quaternary root formation can be attributed to an accelerated secondary root growth.
All Arabidopsis thaliana genotypes were in the Col-0 genetic background, except for shy2-2 in Ler, and iaa28-1 in Ws. Seedlings were grown vertically in 0.5X MS agar under a continuous light at 22° C. Plants in soil were grown in a 16 hr light, 22° C. All the genetic crosses (see Table 5) were selfed, and genotyped to identify homozygous mutations when necessary. Genomic DNA was isolated from segregating F2 plants followed by PCR analyses using gene-specific primers (see Table 6).
GUS solution (100 mM sodium phosphate buffer, pH 7.0, 10 mM EDTA, 0.5 mM each potassium ferrocyanide and potassium ferricyanide, 1.24 mM X-Gluc, and 0.1% Triton X-100) was vacuum-infiltrated into plant tissue for five minutes, then removed from vacuum and incubated in 37° C. for 3 to 12 hrs, followed by a series of ethanol washes. Stained tissues were imaged using Zeiss Axioskop 2 microscope. LRP were quantified by counting both the emerged LR and unemerged LR, as determined by DRS::GUS staining of the primordia, under a dissecting microscope (1.2× magnification). LRP stages were determined by examining ethanol-cleared, GUS-stained tissue using 40× water lens.

[4] = system: Arabidopsis thaliana; test: Drought test: 2 weeks water withdrawal, then rewatering; type: in vivo; settings: rewatering after 2 weeks water withdrawal
Procedure: All plant lines were grown for 2 weeks with water prior to the 2 week water withdrawal. (a) Plants having a severe knock down of PDLP5 (pdlp5-1) and PDLP5-m5 plants bolt faster than plants overexpressing PDLP5 (OX) and wild type (WT) plants. (b) Plants overexpressing PDLP5 (OX) revive 3 days post rewatering (DPR). (c) Plants overexpressing PDLP5 (OX) fully recover and 10 days post rewatering (DPR); wild type (WT) plants are dead, and PDLP5-m5 plants continue to survive.
(a) Plants overexpressing PDLP5 (OX), wild type (WT) plants, plants having a severe knock down of PDLP5 (pdlp5-1), and three different PDLP5-m5 plants (T3-4-2, T2-6, and T2-26) which were all grown a different number of days as required to reach same rosette size before water withdrawal. Plants having the same rosette size are referred to as “same day bolting samples.” (b) Same day bolting samples of plants overexpressing PDLP5 (OX), wild type (WT) plants, plants having a severe knock down of PDLP5 (pdlp5-1), and three different PDLP5-m5 plants (T3-4-2, T2-6, and T2-26) at the end of a 2 week water withdrawal. (c) Same day bolting samples of plants overexpressing PDLP5 (OX) and two different PDLP5-m5 plants (T3-4-2 and T2-26) recover fully 3 days post rewatering.
Transgenic T1 plants were selected on basta+plates and homozygous T2 lines were identified by segregation test on T3 plants. For the drought test, homozygous lines were grown in soil for the 2 weeks with watering followed by 2 weeks of water withdrawal. Tolerance to drought stress of the PDLP5-m5 was assessed by the plant growth or death upon resuming watering.
PDLP5-m5 plants were evaluated by exposing them to drought conditions. PDLP-m5 plants were grown under normal conditions with water, water was withdrawn for 2 weeks, and rewatering was commenced. Plants having a severe knock down of PDLP5 (pdlp5-1) and PDLP5-m5 plants bolt faster than plants overexpressing PDLP5 and wild type plants (FIG. 13A). […] The early bolting of the PDLP5-m5 plants appeared to affect plant revival. Therefore, the experiment was repeated using same day bolting samples. Briefly, plants having the same rosette size were used, regardless of the number of days required to achieve that rosette size (FIG. 14A).

[5] = system: Nicotiana benthamiana leaves; test: Transient expression via Agrobacteria-infiltration, extent of viral movement; type: in vivo; settings: transient expression in Nicotiana benthamiana leaves
Procedure: (a) Schematics of PDLP5-m5, PDLP5-C, and PDLP5-2C mutants as created by overlapping PCR. (b) Transient expression of mutants in Nicotiana benthamiana leaves.
We also created mutants altering just two cysteines (“CC”, residues 288 and 289 of the C-terminal tail region) or a single cysteine (“C”, residue 298 of the C-terminal tail region) residues to A1a. The phenotypes of these partial mutants, as well as the PDLP5-OX, pldp5-1 and PDLP5-m5, were tested in transient expression in Nicotiana benthamiana leaves via Agrobacteria-infiltration, targeting the extent of viral movement for comparison.

B1: PDLP5OE: Wild-type A. thaliana PDLP5 protein (SEQ ID NO:4) constitutively overexpressed in plants under the 35S promoter (protein, listed as Arabidopsis thaliana)
chain: MIKTKTTSLLCFLLTAVILMNPSSSSPTDNYIYAVCSPAKFSPSSGYETNLNSLLSSFVTSTAQTRYANFTVPTGKPEPTVTVYGIYQCRGDLDPTACSTCVSSAVAQVGALCSNSYSGFLQMENCLIRYDNKSFLGVQDKTLILNKCGQPMEFNDQDALTKASDVIGSLGTGDGSYRTGGNGNVQGVAQCSGDLSTSQCQDCLSDAIGRLKSDCGMAQGGYVYLSKCYARFSVGGSHARQTPGPNFGHEGEKGNKDDNGVGKTLAIIIGIVTLIILLVVFLAFVGKCCRKLQDEKWCK
movement between cells reduced by [1]: 70% | total SA compared with the wild-type control [2]: 15 fold | secondary roots, % of WT number ([3]; 8 dpg): 66% | tertiary root occurrence, % of WT ([3]; 8 dpg): 26% | emerged LRP among total secondary roots, % of that found in WT ([3]; 10-day-old seedlings): 50% | secondary roots, % of WT number ([3]; 11 dpg): 77% | tertiary root occurrence, % of WT ([3]; 11 dpg): 50% | reduction in the primary root length ([3]; ten-day-old seedlings, compared to WT): approximately 30% | outcome upon rewatering [4]: recovered after rewatering | extent of viral movement [5]: delay in viral movement
